# Data: paper PMC5029092 (Science signaling, 2011)
# Assays:
# recombinant human TLR2 = recombinant human TLR2 (human, UniProt O60603 21-588); experiment: MST
# [1] = biological target: recombinant human TLR4 and MD2 complex (human, UniProt O00206 24-631; Q9Y6Y9 19-160); experiment: MST
# Sequence of recombinant human TLR4 and MD2 complex (O00206 24-631, chain 1 of 2): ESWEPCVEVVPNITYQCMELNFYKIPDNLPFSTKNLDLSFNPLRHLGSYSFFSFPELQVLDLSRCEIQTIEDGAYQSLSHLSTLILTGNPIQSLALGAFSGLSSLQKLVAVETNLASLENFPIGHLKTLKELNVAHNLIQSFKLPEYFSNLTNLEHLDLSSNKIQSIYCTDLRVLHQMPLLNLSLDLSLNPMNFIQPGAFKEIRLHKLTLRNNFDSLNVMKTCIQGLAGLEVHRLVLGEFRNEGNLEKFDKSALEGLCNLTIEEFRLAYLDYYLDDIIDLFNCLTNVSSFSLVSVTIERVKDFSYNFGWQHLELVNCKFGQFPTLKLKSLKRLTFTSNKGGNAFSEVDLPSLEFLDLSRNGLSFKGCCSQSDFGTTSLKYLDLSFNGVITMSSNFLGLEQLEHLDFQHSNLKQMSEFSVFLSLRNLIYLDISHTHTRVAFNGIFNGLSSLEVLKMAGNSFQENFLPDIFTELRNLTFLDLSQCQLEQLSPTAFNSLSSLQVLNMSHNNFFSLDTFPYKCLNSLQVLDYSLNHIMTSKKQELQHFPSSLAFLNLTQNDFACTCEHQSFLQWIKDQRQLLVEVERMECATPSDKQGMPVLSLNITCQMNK
# Sequence of recombinant human TLR4 and MD2 complex (Q9Y6Y9 19-160, chain 2 of 2): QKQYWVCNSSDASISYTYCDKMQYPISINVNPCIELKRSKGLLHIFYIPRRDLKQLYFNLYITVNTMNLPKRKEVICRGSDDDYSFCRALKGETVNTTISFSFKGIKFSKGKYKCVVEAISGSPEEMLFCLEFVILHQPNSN
# Sequence of recombinant human TLR2 (O60603 21-588): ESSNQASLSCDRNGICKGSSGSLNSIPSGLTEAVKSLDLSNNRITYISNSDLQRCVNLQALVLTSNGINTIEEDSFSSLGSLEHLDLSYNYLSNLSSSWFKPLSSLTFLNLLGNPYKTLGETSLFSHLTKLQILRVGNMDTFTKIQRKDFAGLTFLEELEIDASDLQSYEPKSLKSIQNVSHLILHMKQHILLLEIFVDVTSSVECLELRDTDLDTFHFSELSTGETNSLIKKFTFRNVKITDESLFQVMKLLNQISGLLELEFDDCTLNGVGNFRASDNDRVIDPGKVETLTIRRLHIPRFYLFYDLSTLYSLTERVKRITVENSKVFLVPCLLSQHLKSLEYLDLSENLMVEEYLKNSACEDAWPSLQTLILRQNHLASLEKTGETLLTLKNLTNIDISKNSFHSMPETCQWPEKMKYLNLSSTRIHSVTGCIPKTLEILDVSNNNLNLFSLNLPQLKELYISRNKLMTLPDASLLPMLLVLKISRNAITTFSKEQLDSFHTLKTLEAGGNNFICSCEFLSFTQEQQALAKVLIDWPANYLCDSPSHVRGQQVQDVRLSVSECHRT
binder,measurement,setting,value
"NT-647-labeled human decorin (natural protein, UniProt P07585 31-359, looked up, fluorophore NT-647 (Monolith NT protein Labeling Kit)) DEASGIGPEVPDDRDFEPSLGPVCPFRCQCHLRVVQCSDLGLDKVPKDLPPDTTLLDLQNNKITEIKDGDFKNLKNLHALILVNNKISKVSPGAFTPLVKLERLYLSKNQLKELPEKMPKTLQELRAHENEITKVRKVTFNGLNQMIVIELGTNPLKSSGIENGAFQGMKKLSYIRIADTNITSIPQGLPPSLTELHLDGNKISRVDAASLKGLNNLAKLGLSFNSISAVDNGSLANTPHLRELHLDNNKLTRVPGGLAEHKYIQVVYLHNNNISVVGSSDFCPPGHNTKKASYSGVSLFSNPVQYWEIQPSTFRCVYVRSAIQLGNYK",Kd,recombinant human TLR2,59 ± 10 nM
same,Kd,[1],37 ± 5 nM
